According to patent US20150051146A1:
Like-named read-outs stand apart in the source and are kept apart here.

B1: Clone 1D6 (DTR carrying the mutations Y380K/Q387E/L390T) (designed binder)
chain: MGKSPGHKTEPFTHDGYAVSWNTVEDSIIRTGFQGESGHDIKITAENTPLPIAGVLLPTIPGKLDVNKSKTHISVNGRKIRMRCRAIDGDVTFCRPKSPVYVGNGVHANLHVAFHRSSSEKIHSNEISSDSIGVLGYQKTVDHTKVNSKLSLFFEIKS

What was measured:
[1] = biological target: pro-HB-EGF on Vero cells; test: Schild regression from inhibition of diphtheria toxin cytotoxicity on Vero cells
[2] = biological target: pro-HB-EGF on Vero cells; test: as above; remark: listed apart in the source
[3] = biological target: pro-HB-EGF on Vero cells; test: ratio of Kd values from Schild regression (Vero cytotoxicity)

Molecule | Kd [1] [nM] | Kd [2] [nM] | fold lower affinity for HB-EGF and pro-HB-EGF against CRM197 [3] [fold]
CRM197 (natural mutant of diphtheria toxin comprising the G52E mutation) (from UniProt P00587 26-560) (ligand) | 3.1 | 3.1 | –
wild-type DTR protein (DTRWT) (from UniProt P00587 405-560) (ligand) | 6.5 | 6.5 | 2
B1 | – | 0.025 | –
